The supplement of paper PMC10201428
± gives the standard deviation of the averaged measurements.

Experiments:
[1] = system: VchCAST RNA-guided transposition machinery (E. coli BL21(DE3) host, lacZ target); assay: relative integration efficiency (T-LR orientation) vs wild-type transposon end (log2 (normalized fold change)); transposon end mutated: left end; higher = more efficient transposition
Summary of the method: (§1)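 In E. coli BL21(DE3), a T7-driven effector plasmid was paired with a pUC57 mini-transposon donor containing 1549 left-end or 1849 right-end barcoded transposon variants. Cells grew on plates with 0.1 mM IPTG at 37°C for 18 h. Relative integration efficiency was derived from Illumina reads of genomic integration junctions against input plasmids, as a log-transformed output/input barcode fold change normalised to reference barcodes.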

[2] = system: VchCAST RNA-guided transposition machinery (E. coli BL21(DE3) host, lacZ target); assay: relative integration efficiency (T-RL orientation) vs wild-type transposon end (log2 (normalized fold change)); transposon end mutated: left end; higher = more efficient transposition
Summary of the method: as §1

Row | Sequence | relative integration efficiency (log2) [1] | relative integration efficiency (log2) [2]
1 | AATGTTGTTGATGCAACCATAAAGTGATATTTAATAATTATTTATAATCAGCAACTTAACCACAAAATGTGAATCGAGTATTTCAGCAAAACTACTGCAGTACAACCATATATTGATATCTCACAAAACAACCATAAGTTGATATTTTAGAA | -3.82 ± 1.3 | -6.01 ± 0.9
2 | AATGTTGTTGATGCAACCATAAAGTGATATTTAATAATTATTTATAATCAGCAACTTAACCACAAAATGTGACAACCATATATTGATATCTCACAAAACAACCATAAGTTGATATTTTATCGAGTATTTCAGCAAAACTACTGCAGTAAGAA | -4.36 ± 1.1 | -4.95 ± 0.52
3 | AATGTTGTTGATGCAACCATAAAGTGATATTTAATAATTATTTATAATCAGCAACTTAACCACAAACAACCATATATTGATATCTCAACAAAACAACCATAAGTTGATATTTTTGTGAATCGAGTATTTCAGCAAAACTACTGCAGTAAGAA | -1.17 ± 1.5 | -1.37 ± 0.49
4 | AATGTTGTTGATGCAACCATAAAGTGATATTTAATAATTATTTATAATCAGCAACTTAACCACAAACAACCATATATTGATATCTCACAAAACAACCATAAGTTGATATTTTATGTGAATCGAGTATTTCAGCAAAACTACTGCAGTAAGAA | -1.02 ± 0.3 | -0.754 ± 0.26
5 | AATGTTGTTGATGCAACCATAAAGTGATATTTAATAATTATTTATAATCAGCAACTTAACCACAAACAACCATATATTGATATCTCACAAAACAACCATAAGTTGATATTTTTGTGAATCGAGTATTTCAGCAAAACTACTGCAGTAAGAAA | -0.356 ± 0.049 | -0.248 ± 0.24
6 | AATGTTGTTGATGCAACCATAAAGTGATATTTAATAATTATTTATAATCAGCAACTTAACCACAACAACCATATATTGATATCTCACAAAACAACCATAAGTTGATATTTTTGTGAATCGAGTATTTCAGCAAAACTACTGCAGTAAGAAAG | -2.53 ± 1.4 | -2.31 ± 0.76
7 | AATGTTGTTGATGCAACCATAAAGTGATATTTAATAATTATTTATAATCAGCAACTTAACCACAACCACCAACGCGCGGTCGCGAGACACCCCACCAACGCCTGGTCGCGGGGGTGTCCGATCTGATTTCAGCAAAACTACTGCAGTAAGAA | -4.35 ± 3.3 | -5.83 ± 1.9
8 | AATGTTGTTGATGCAACCATAAAGTGATATTTAATAATTATTTATAATCAGCAACTTAACCACAACCATATATTGATATCTCACAAAACAACCATAAGTTGATATTTTCAAAATGTGAATCGAGTATTTCAGCAAAACTACTGCAGTAAGAA | -2.53 ± 1.4 | -5.07 ± 0.94
9 | AATGTTGTTGATGCAACCATAAAGTGATATTTAATAATTATTTATAATCAGCAACTTAACCACAACCATATATTGATATCTCCAAAAACAAAACAACCATAAGTTGATATTTTTGTGAATCGAGTATTTCAGCAAAACTACTGCAGTAAGAA | -2.36 ± 0.59 | -3.07 ± 1
10 | AATGTTGTTGATGCAACCATAAAGTGATATTTAATAATTATTTATAATCAGCAACTTAACCACACAACCATATATTGATATCTCAAAACAAAACAACCATAAGTTGATATTTTTGTGAATCGAGTATTTCAGCAAAACTACTGCAGTAAGAA | -3.44 ± 2.9 | -2.19 ± 0.45
11 | AATGTTGTTGATGCAACCATAAAGTGATATTTAATAATTATTTATAATCAGCAACTTAACCACACAACCATATATTGATATCTCACAAAACAACCATAAGTTGATATTTTTGTGAATCGAGTATTTCAGCAAAACTACTGCAGTAAGAAAGT | -2.81 ± 1.1 | -4.27 ± 1.1
12 | AATGTTGTTGATGCAACCATAAAGTGATATTTAATAATTATTTATAATCAGCAACTTAACCACACCCACCAACGCGCGGTCGCGAGACACCCCACCAACGCCTGGTCGCGGGGGTGTCCGATCTGATTTCAGCAAAACTACTGCAGTAAGAA | -3.59 ± 0.93 | -6.25 ± 1.4
13 | AATGTTGTTGATGCAACCATAAAGTGATATTTAATAATTATTTATAATCAGCAACTTACAACCATATATTGATATCTCACAAAACAACCATAAGTTGATATTTTACCACAAAATGTGAATCGAGTATTTCAGCAAAACTACTGCAGTAAGAA | -1.12 ± 1.1 | -1 ± 0.61
14 | AATGTTGTTGATGCAACCATAAAGTGATATTTAATAATTATTTATAATCAGCAACTTACAACCATATATTGATATCTCACAAAACAACCATAAGTTGATATTTTTGTGAATCGAGTATTTCAGCAAAACTACTGCAGTAAGAAAGTTACTTC | -0.998 ± 0.78 | -0.809 ± 0.49
15 | AATGTTGTTGATGCAACCATAAAGTGATATTTAATAATTATTTATAATCAGCAACTTACAACCATATATTGATATCTCACCACAAAAACAAAACAACCATAAGTTGATATTTTTGTGAATCGAGTATTTCAGCAAAACTACTGCAGTAAGAA | 0.226 ± 1.1 | -0.417 ± 0.35
16 | AATGTTGTTGATGCAACCATAAAGTGATATTTAATAATTATTTATAATCAGCAACTTCAACCATATATTGATATCTCAACCACAAAAACAAAACAACCATAAGTTGATATTTTTGTGAATCGAGTATTTCAGCAAAACTACTGCAGTAAGAA | -2.92 ± 1.7 | -2.25 ± 0.7
17 | AATGTTGTTGATGCAACCATAAAGTGATATTTAATAATTATTTATAATCAGCAACTTCAACCATATATTGATATCTCACAAAACAACCATAAGTTGATATTTTAACCACAAAATGTGAATCGAGTATTTCAGCAAAACTACTGCAGTAAGAA | -1.03 ± 0.79 | -0.834 ± 0.54
18 | AATGTTGTTGATGCAACCATAAAGTGATATTTAATAATTATTTATAATCAGCAACTTCAACCATATATTGATATCTCACAAAACAACCATAAGTTGATATTTTTGTGAATCGAGTATTTCAGCAAAACTACTGCAGTAAGAAAGTTACTTCG | -0.903 ± 0.24 | -1.06 ± 0.45
19 | AATGTTGTTGATGCAACCATAAAGTGATATTTAATAATTATTTATAATCAGCACAACCATATATTGATATCTCACTTAACCACAAAAACAAAACAACCATAAGTTGATATTTTTGTGAATCGAGTATTTCAGCAAAACTACTGCAGTAAGAA | < -10 | -6.85 ± 0.48
20 | AATGTTGTTGATGCAACCATAAAGTGATATTTAATAATTATTTATAATCAGCACAGGCCAACACCCCACCAACGCGCGGTCGCGAGACACCCCACCAACGCCTGGTCGCGGGGGTGTCCGATCTGATTTCAGCAAAACTACTGCAGTAAGAA | -3.578 ± 0.033 | -7.2 ± 1.5
21 | AATGTTGTTGATGCAACCATAAAGTGATATTTAATAATTATTTATAATCAGCCAACCATATATTGATATCTCACAAAACAACCATAAGTTGATATTTTTGTGAATCGAGTATTTCAGCAAAACTACTGCAGTAAGAAAGTTACTTCGTGGTA | -4.33 ± 0.31 | -7.71 ± 0.64
22 | AATGTTGTTGATGCAACCATAAAGTGATATTTAATAATTATTTATAATCAGCCCAGGCCAACACCCCACCAACGCGCGGTCGCGAGACACCCCACCAACGCCTGGTCGCGGGGGTGTCCGATCTGATTTCAGCAAAACTACTGCAGTAAGAA | -4.09 ± 1.1 | -6.41 ± 1.4
23 | AATGTTGTTGATGCAACCATAAAGTGATATTTAATAATTATTTATAATCCTACCAGGCCAACACCCCACCAACGCGCGGTCGCGAGACACCCCACCAACGCCTGGTCGCGGGGGTGTCCGATCTGATTTCAGCAAAACTACTGCAGTAAGAA | -5.08 ± 3.7 | -6.45 ± 1.8
24 | AATGTTGTTGATGCAACCATAAAGTGATATTTAATAATTATTTATACAACCATAAAGTGATATTTAACAACCATATATTGATATCTCACAAAACAACCATAAGTTGATATTTTTGTGAATCGAGTATTTCAGCAAAACTACTGCAGTAAGAA | -4.48 ± 0.05 | -6.31 ± 0.44
